Reference: article PMC7506613

Each sequence was assayed against T1, IIA2 peptide (lambda-Cro mutant, helix-turn-helix) (phage lambda (designed mutant)) (UniProt P03040) (assay: fluorescence titration (520 nm)). Settings: fluorescein-labeled peptide; Fluorescence: 20 uM (so in the source) phosphate buffer, room temperature, 15 min; CD: 20 mM phosphate pH 7.4 (stated for peptide CD), 20 uM each; microarray: PBS ….
T1 sequence: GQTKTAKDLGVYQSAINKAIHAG

Row | Sequence | Kd
1 | GCAATGGTACGGTACTTCCGGGCTGGCCAGATCAGACCCCGGATGATCATCCTTGTGAGAACCACAAAAGTGCACGCTACTTTGCTAA [SA23 aptamer] | 1.64 µM
2 | TCCGGGCTGGCCAGATCAGACCCCGGA [SA23 short2] | 9.61 µM
3 | TCCGGGG (double strand) [SA23 short1] | 5.81 µM
